Measurements taken from patent US10640563B2, “Anti-B7-H3 antibodies and antibody drug conjugates” (AbbVie Inc., priority 2016, dated 2020).

T1: soluble ECD of human B7-H3 (Homo sapiens, UniProt Q5ZPR3)
T1 construct: His tag (6xHis) (C); made in house
T1 sequence (Q5ZPR3 with tags, fused parts or gaps): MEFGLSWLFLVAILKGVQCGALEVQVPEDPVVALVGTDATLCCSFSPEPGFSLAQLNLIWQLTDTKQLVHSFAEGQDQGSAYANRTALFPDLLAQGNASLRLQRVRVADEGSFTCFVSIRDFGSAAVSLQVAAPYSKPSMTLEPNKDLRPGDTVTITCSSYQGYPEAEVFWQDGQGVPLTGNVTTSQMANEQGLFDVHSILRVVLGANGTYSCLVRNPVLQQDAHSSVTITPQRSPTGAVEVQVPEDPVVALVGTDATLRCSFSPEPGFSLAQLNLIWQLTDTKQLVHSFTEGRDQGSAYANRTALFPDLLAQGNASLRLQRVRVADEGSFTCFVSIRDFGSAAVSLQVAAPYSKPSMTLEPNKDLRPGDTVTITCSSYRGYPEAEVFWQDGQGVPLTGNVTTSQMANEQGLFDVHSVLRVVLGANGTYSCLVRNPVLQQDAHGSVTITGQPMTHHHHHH


Tests used:
HCC38 cell line = assay: Cell cytotoxicity of ADCs in HCC38 cell line; type: cell-based; conditions: CZ conjugates
Experimental: The humanization of chAb18 generated 10 variants (described above in Table 9) that retained binding to human and cyno B7-H3 as assessed by FACS (the method of which is described above in Example 6). These variants were further characterized for binding by SPR and were successfully conjugated to the Bcl-xL inhibitor synthon CZ using Method A (described above) and assessed for cell cytotoxicity as described in Example 7. The parental chAb18 from which the variants were derived was also tested as a comparator. All humanized variants had similar binding properties as assessed by biacore, and retained binding activity to cell surface expressed as conjugates with the CZ synthon. The cytotoxicity of all of the variants as CZ synthons were similar to the chAb18 from which they were derived.
Humanized chAb18 variants were conjugated to the CZ synthon and tested for cytotoxicity in HCC38 cell line.

[1] = Aggregation of conjugates by SEC; type: physicochemical
[2] = biological target: T1, soluble ECD of human B7-H3; assay: Biacore T200 SPR binding kinetics, mAb capture; conditions: Biacore T200, Fc capture of mAb, B7-H3 ECD as analyte, 1:1 binding model
Experimental: The binding affinity of the purified anti-B7-H3 monoclonal antibodies was determined by surface […]. […] The binding kinetics were derived from SPR measurements using a Biacore T200 instrument and a mAb capture approach (as described in the materials and methods below).
Biacore T200 SPR instruments were used to measure the binding kinetics of human B7-H3 (analyte) binding to various mAbs (ligands). The assay format was Fc-based capture via immobilized anti-mouse (Fc) (Pierce 31170) or immobilized anti-human (Fc) (Pierce 31125). A standard amine coupling protocol was employed to immobilize the capture reagents via primary amines to the carboxy-methyl (CM) dextran surface of CM5 sensorchips (Biacore); capture antibodies were coupled to a level of approximately 5000 RU. For binding kinetic measurements the assay buffer was HBS-EP+ (Biacore): 10 mM Hepes, pH7.4, 150 mM NaCl, 3 mM EDTA, 0.05% polysorbate 20. During the assay, all measurements were referenced against the capture surface alone. Each assay cycle consisted of the following steps: 1) Capture of ligand to approximately 50 RU; 2) Analyte injection over both reference and test surface, 240 μL at 80 μL/min, after which the dissociation was monitored for 900 seconds at 80 μL/min; 3) Regeneration of capture surface with low pH glycine. For kinetic determinations analyte injections were 3-point, 9-fold dilution series of 900 nM, 100 nM and 11.11 nM, buffer only injections were included for secondary referencing. Data were processed and fit to a 1:1 binding model using Biacore T200 Evaluation Software to determine the binding kinetic rate constants, ka (on-rate) and kd (off-rate), and the equilibrium dissociation constant (affinity, KD).

[3] = tested on: soluble ECD of cyno B7-H3; assay: Biacore T200 SPR binding kinetics, mAb capture; parameters: species or system cynomolgus monkey; conditions: Biacore T200, Fc capture of mAb, B7-H3 ECD as analyte, 1:1 binding model
[4] = Table 14, CZ conjugates of Ab3 variants
[5] = Table 10, CZ conjugates of Ab18 variants

Chain of soluble ECD of cyno B7-H3 (as listed by the source): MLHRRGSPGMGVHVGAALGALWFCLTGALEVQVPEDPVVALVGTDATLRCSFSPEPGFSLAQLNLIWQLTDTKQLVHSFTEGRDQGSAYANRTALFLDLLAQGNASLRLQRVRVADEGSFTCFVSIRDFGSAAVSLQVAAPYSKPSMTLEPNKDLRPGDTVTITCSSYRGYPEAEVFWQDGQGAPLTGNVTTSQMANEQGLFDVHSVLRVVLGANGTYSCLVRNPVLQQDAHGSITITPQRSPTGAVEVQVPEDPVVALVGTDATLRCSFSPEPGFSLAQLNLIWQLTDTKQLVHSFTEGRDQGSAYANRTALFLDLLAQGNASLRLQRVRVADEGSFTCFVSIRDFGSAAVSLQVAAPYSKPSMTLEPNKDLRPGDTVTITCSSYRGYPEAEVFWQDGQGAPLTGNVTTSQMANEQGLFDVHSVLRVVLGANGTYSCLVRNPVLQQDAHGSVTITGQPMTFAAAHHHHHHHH

Molecule	huB7-H3 ka [2] [M⁻¹ s⁻¹]	huB7-H3 kd [2] [s⁻¹]	cynoB7-H3 ka [3] [M⁻¹ s⁻¹]	cynoB7-H3 kd [3] [s⁻¹]	% agg by SEC [1, 5] [%]	other results
huAb3v3-CZ (conjugate) VH: EVQLVQSGAEVKKPGSSVKVSCKASGYTFSSYWMHWVRQAPGQGLEWIGLIHPDSGSTNYNEMFKNRATLTVDRSTSTAYVELSSLRSEDTAVYFCAGGGRLYFDYWGQGTTVTVSS VL: DVVMTQSPLSLPVTPGEPASISCRSSQSLVHSNGDTYLRWYLQKPGQSPQLLIYKVSNRFSGVPDRFSGSGSGTDFTLKISRVEAEDVGVYFCSQSTHVPYTFGGGTKVEIK						IC50 (HCC38 cell line; Table 14): 9.22 nM; % agg by SEC [1, 4]: 2.5%
huAb3v5-CZ (conjugate) VH: EVQLVQSGAEVKKPGSSVKVSCKASGYTFSSYWMHWVRQAPGQGLEWIGLIHPDSGSTNYNEMFKNRATLTVDRSTSTAYMELSSLRSEDTAVYYCAGGGRLYFDYWGQGTTVTVSS VL: DVVMTQSPLSLPVTPGEPASISCRSSQSLVHSNGDTYLRWYLQKPGQSPQLLIYKVSNRFSGVPDRFSGSGSGTDFTLKISRVEAEDVGVYYCSQSTHVPYTFGGGTKVEIK						IC50 (HCC38 cell line; Table 14): 0.17 nM; % agg by SEC [1, 4]: 5.9%
huAb3v1-CZ (conjugate) VH: EVQLVQSGAEVKKPGSSVKVSCKASGYTFSSYWMHWVRQAPGQGLEWMGLIHPDSGSTNYNEMFKNRVTITADKSTSTAYMELSSLRSEDTAVYYCARGGRLYFDYWGQGTTVTVSS VL: DIVMTQSPLSLPVTPGEPASISCRSSQSLVHSNGDTYLRWYLQKPGQSPQLLIYKVSNRFSGVPDRFSGSGSGTDFTLKISRVEAEDVGVYYCSQSTHVPYTFGGGTKVEIK						IC50 (HCC38 cell line; Table 14): 0.53 nM; % agg by SEC [1, 4]: 3.3%
Ab14 (antibody, V domains shown) VH: EVKLVESGGGLVKPGGSLKLSCAASGFTFSSYGMSWVRQTPEKRLEWVATISGGGTNTYYPDSVEGRFTISRDNAKNFLYLQMSSLRSEDTALYYCARHYGSQTMDYWGQGTSVTVSS VL: DIQMTQSPASLSASVGETVTITCRTSGNIHNYLTWYQQKQGKSPQLLVYNAKTLADGVPSRFSGSGSGTQFSLKINSLQPEDFGSYYCQHFWSIMWTFGGGTKLEIK	110000	0.0014	690000	0.003		
Ab16 (antibody, V domains shown) VH: EVKLLESGGGLVQPGGSLKLSCAASGFDFSRYWMSWVRQAPGKGLEWIGEINPDSSTINYTPSLKDKFIISRDNAKNTLYLQMSKVRSEDTALYYCARPGFGNYIYAMDYWGQGTSVTVSS VL: DIQMTQTTSSLSASLGDRVTINCRASQDISNFLNWYQQKPDGTVKLLIYYTSRLYLGVPSRFSGSGSGTDYSLTISNLEQEDIATYFCQQGNTLPPTFGGGTKLEIK	140000	0.0032	750000	0.0056		
Ab10 (antibody, V domains shown) VH: DVQLQESGPGLVKPSQSLSLTCTVTGYSITSDYAWNWIRQFPGNRLEWMGHINYSGITNYNPSLKSRISITRDTSKNQFFLQLYSVTTEDTATYFCARRSLFYYYGSSLYAMDYWGQGTSVTVSS VL: DVVMTQSPFSLPVSLGDQASISCRSSQSLVHSNGNTYLHWYLQKPGQSPKLLIYKVSNRFSGVPDRFSGSGSGTDFTLKISRVEAEDLGVYFCSQSTHVPWTFGGGTKLEIK	41000	0.00019	200000	0.0042		
Ab2 (antibody, V domains shown) VH: QVQLQQPGAELVKPGASVKLSCKASGYTFTSYWMHWVKQRPGQGLEWIGMIHPDSGTTNYNEKFRSKATLTVDKSSSTAYMQLSSLTSEDSAVYYCAVYYGSTYWYFDVWGTGTTVTVSS VL: DVVMTQTPLSLPVSLGDQAYISCRSSQSLVHINGNTYLHWYRQKPGQSPKLLIYKVSNRFSGVPDRFSGSGSGTDFTLKISRVEAEDLGVYFCSQSTHFPFTFGSGTKLEIK	120000	0.0029	230000	0.011		
huAb18v2-CZ (conjugate) VH: EVQLVQSGAEVKKPGSSVKVSCKASGYSFTSYTIHWVRQAPGQGLEWMGYINPNSRNTDYAQKFQGRVTLTADKSTSTAYMELSSLRSEDTAVYYCARYSGSTPYWYFDVWGQGTTVTVSS VL: DIQLTQSPSFLSASVGDRVTITCRASSSVSYMNWYQQKPGKAPKLLIYATSNLASGVPSRFSGSGSGTEFTLTISSLQPEDFATYYCQQWSSNPLTFGQGTKLEIK					3.3	
huAb18v5-CZ (conjugate) VH: EVQLVQSGAEVKKPGSSVKVSCKASGYSFTSYTIHWVRQAPGQGLEWMGYINPNSRNTDYNQKFKDRVTITADKSTSTAYMELSSLRSEDTAVYYCARYSGSTPYWYFDVWGQGTTVTVSS VL: EIVLTQSPDFQSVTPKEKVTITCRASSSVSYMNWYQQKPDQSPKLLIKATSNLASGVPSRFSGSGSGTDFTLTINSLEAEDAATYYCQQWSSNPLTFGQGTKLEIK					4.2	IC50 (HCC38 cell line; Table 10): 0.12 nM
huAb18v8-CZ (conjugate) VH: EVQLVQSGAEVKKPGSSVKVSCKASGYSFTSYTIHWVRQAPGQGLEWIGYINPNSRNTDYNQKFKDRTTLTADRSTSTAYMELSSLRSEDTAVYYCARYSGSTPYWYFDVWGQGTTVTVSS VL: DIQLTQSPSFLSASVGDRVTITCRASSSVSYMNWYQQKPGKAPKPWIYATSNLASGVPSRFSVSGSGTEHTLTISSLQPEDFATYYCQQWSSNPLTFGQGTKLEIK					3.5	IC50 (HCC38 cell line; Table 10): 1.3 nM
huAb18v10-CZ (conjugate) VH: EVQLVQSGAEVKKPGSSVKVSCKASGYSFTSYTIHWVRQAPGQGLEWMGYINPNSRNTDYAQKFQGRVTLTADKSTSTAYMELSSLRSEDTAVYYCARYSGSTPYWYFDVWGQGTTVTVSS VL: DIQLTQSPSFLSASVGDRVTITCRASSSVSYMNWYQQKPGKAPKPWIYATSNLASGVPSRFSVSGSGTEHTLTISSLQPEDFATYYCQQWSSNPLTFGQGTKLEIK					3.2	
Ab13 (antibody, V domains shown) VH: DVQLQESGPDLVKPSQSLSLTCTVTGYSITSGYSWHWIRQFPGNKLEWMGYIHSSGSTNYNPSLKSRISINRDTSKNQFFLQLNSVTTEDTATYYCAGYDDYFEYWGQGTTLTVSS VL: DIVMTQSQKFMSTSVGDRVSVTCKASQNVGFNVAWYQQKPGQSPKALIYSASYRYSGVPDRFTGSGSGTDFTLTISNVQSEDLAEYFCQQYNSYPFTFGSGTKLEIK	330000	0.0058	440000	0.0037		
Ab17 (antibody, V domains shown) VH: EVKLVESGGGLVQPGGSLKLSCAASGFTFSSYIMSWVRQTPEKRLEWVASIVSSNITYYPDSMKGRFTISRDNARNILYLQMSSLKSEDTAMYYCARSGTRAWFAYWGQGTLVTVSA VL: DIVLTQSPASLAVSLGQRATISCRASKSVSTSAYSYMHWYQQKPGQPPKLLIYLASNLESGVPARFSGSGSGTDFTLNIHPVEEEDAATYYCQHSRELPYTFGGGTKLEIK	540000	1.9e-05	510000	1e-05		
